18 variants from IntAct's records for PubMed 19893486 can be followed below.

B1: Rho guanine nucleotide exchange factor TIAM2 (Mus musculus), Q6ZPF3 (parent)
chain: MGNSESQYTFQGSKNHSNTVTGAKQKPCSLKIRSVHAKDEKSLHGWTHGSSGAGYKSRSLARSCLSHFKNHQPYATRLSGPTCKVSKGTTYSKHRANTPGNDFQGNSGAFLPENGFHYVDRESEESHITSNGHLLTCYGRKESLASTPPGEDHRSPRVLIKTLGKLDGCLRVEFHNGGNPHKGTSEDPSGPVRLLRYSPTLASETCPVRETRRHSAAGSPSSQRPSPTDSRLRSSKGSSLSSESSWYDSPWGNAGEVSEVEGSFLAPSTPDPSLPSSFPPSDTKKPFNQSSSLSSLRELYKDPNLGCRSPSGTCLSSNEYISSQVSLNNRVSFASDMDVPSRVDHRDPLHYSSFTLPCRKSKALTEDAAKKDTLKARMRRFSDWTGSLSRKKRKLQEPRSMEGSEYFDSHSDGLNAEGQVPAQTSSLLWSGGSAQTLPHRSESTHAISVDPLRQNIYENFMRELEMSRSNTEHVETSTETMESSSESVSSLEQLDLLFEKEQGVVRKAGWLFFKPLVTLQKERKLELVARRKWKQYWVTLKGCTLLFYETYGKNSTEQNSAPRCALFAEDSIVQSVPEHPKKEHVFCLSNSCGDVYLFQATSQTDLENWVTAIHSACASLFAKKHGKEDTVRLLKSQTRSLLQKIDMDSKMKKMAELQLSVVSDPKNRKAIENQIRQWEQNLEKFHMDLFRMRCYLASLQGGELPNPKSLLAATSRPSKLALGRLGVLSVSSFHALVCSRDDSTLRKRTLSLTQRGKSKKGIFSSLKGLDTLARKGREKRASITQMFDSSHSHGFLGTQLPQKSTNSNKAHDLHLYGSAVDSALRDSMWEVQTYVHFQDNEGVTVTIKPEHRVEDVLALVCKMRQLEPTHYGLQLRKVVDKSVEWCVPALYEYMQEQVYDEIEVFPLSVYDVQLTKTGDMTDFGFAVTVQVDEHQHLNRIFISDVLPDSLAYGGGLRKGNEITSLNGEPVSDLDIQQMEALFSEKSVGLTLVARPVTTRRTLCASWSDSDLFSRDQKSLPPSPNQSQLLEEFLDNFRKTATSDFSNVPEITTGLKRSQTEGTLDQVPHREKMEQTFLSADQIAELCRDLNNTHTNSMEAPTESHDPPPRPLARHLSDADRLRKVIQELVDTEKSYVKDLSCLFELYLEPLQNETFLTQDEMESLFGSLPEMLEFQKVFLETLEDAISASSDFSVLETPSQFRKLLFSLGGSFLYYADHFKLYSGFCANHIKVQRVLERAKTDKAFKAFLDARNPTKQHSSTLESYLIKPVQRVLKYPLLLKELVSLTDHESEEHYHLTEALKAMEKVASHINEMQKIYEDYGMVFDQLVAEQSGTEKEVTELSMGELLMHSTVSWLNPFLSLGKARKDIELTVFVFKRAVILVYKENCKLKKKLPSNSRPAHNSADLDPFKFRWLIPISALQVRLGNTAGTENNSTWELIHTKSEIEGRPETIFQLCCSDSENKTSIVKVIRSILRENFRRHIKCELPLEKTCKDRLVPLKNRVPVSAKLASSRSLKGLRTSSSSEWPSEPSKGNSLDSDECSLSSGTQSSGCPVAESRRDSKSTELEKDAQEGLAEFPDGLIKESDILSDEDEDFHHPLKQGSPTKDIEIQFQRLKISEESDVHPVGQQPLTESGEQPKLVRGHFCPIKRKANSTKRGRGTLLKAQTRHQSLDSHPETASIDLNLVLEREFSVQSLTSVVNEEGFYETQSHGKS
B2: Rho guanine nucleotide exchange factor TIAM2 (Mus musculus), Q6ZPF3 (parent)
chain: B1 chain
partner: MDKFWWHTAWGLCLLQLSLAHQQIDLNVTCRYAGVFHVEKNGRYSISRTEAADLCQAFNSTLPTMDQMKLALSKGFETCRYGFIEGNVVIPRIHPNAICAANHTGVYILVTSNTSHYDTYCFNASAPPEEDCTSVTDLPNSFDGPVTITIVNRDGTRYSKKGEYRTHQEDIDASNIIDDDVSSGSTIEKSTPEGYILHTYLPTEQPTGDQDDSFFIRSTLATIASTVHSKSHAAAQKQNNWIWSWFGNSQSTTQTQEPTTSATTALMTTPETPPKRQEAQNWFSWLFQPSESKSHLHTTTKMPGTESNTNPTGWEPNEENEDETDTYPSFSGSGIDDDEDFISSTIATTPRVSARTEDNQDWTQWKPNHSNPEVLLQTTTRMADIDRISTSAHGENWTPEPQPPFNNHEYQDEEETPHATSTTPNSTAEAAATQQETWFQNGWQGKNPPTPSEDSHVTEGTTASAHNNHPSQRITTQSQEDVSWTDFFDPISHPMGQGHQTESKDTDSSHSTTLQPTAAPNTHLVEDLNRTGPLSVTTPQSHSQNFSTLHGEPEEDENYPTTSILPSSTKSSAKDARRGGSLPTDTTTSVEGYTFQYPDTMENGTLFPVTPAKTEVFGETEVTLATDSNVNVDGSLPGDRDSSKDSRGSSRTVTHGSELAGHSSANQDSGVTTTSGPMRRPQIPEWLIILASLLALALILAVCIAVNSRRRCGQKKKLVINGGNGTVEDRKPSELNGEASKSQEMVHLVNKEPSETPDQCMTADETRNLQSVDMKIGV
B3: Rho guanine nucleotide exchange factor TIAM1 (Mus musculus), Q60610 (parent)
chain: MGNAESQNVDHEFYGEKHASLGRKHTSRSLRLSHKTRRTRHASSGKAIHRNSEVSTRSSSTPSIPQSLAENGLEPFSQEGALDDFGDPIWVDRVDMGLRPVSYTDSSVTPSVDGSIVLTAASVQSMPDSEESRLYGDDATYLAEGGRRQCPYTSNGPTFMETASFKKKRSKSADIWREDSLEFSLSDLSQEHLTSNEEILGSAEEKDCEEARGMETEASPRQLSTCQRANSLGDLYAQKNSGVKANGGPRNRFSSYCRNLVSDIPDLAKHKMPPAAAEETPPYSNYNTLPCRKSHCLSEGATNPQISLSKSMQGRRAKTTQDVNTGEGSEFADSGIEGATTDTDLLSRRSNATNSSYSPPTGRAFVGSDSGSSSTGDRARQGVYENFRRELEMSTTNSESLEEAGSAHSDEQSSGTLSSPGQSDILLTAAQGTVRKAGALAVKNFLVHKKNKKVESATRRKWKHYWVSLKGCTLFFYETDGRSGIDHNSVPKHAVWVENSIVQAVPEHPKKDFVFCLSNSLGDAFLFQTTSQTELENWITAIHSACAAAVARHHHKEDTLRLLKSEIKKLEQKIDMDEKMKKMGEMQLSSVTDSKKKKTILDQIFVWEQNLEQFQMDLFRFRCYLASLQGGELPNPKRLLAFASRPTKVAMGRLGIFSVSSFHALVAARTGEIGVRRRTQAMSRSASKRRSRFSSLWGLDTTSKKKQGRPTINQVFGEGTDAVKRSLEGIFDDTVPDGKREKEVVLPSVHQHNPDCDIWVHEYFTPSWFCLPNNQPALTVVRPGDTARDTLELICKTHQLDHSAHYLRLKFLMENRVQFYIPQPEEDIYELLYKEIEICPKVTQNIHIEKSDAAADNYGFLLSSVDEDGIRRLYVNSVKETGLASKKGLKAGDEILEINNRAAGTLNSSMLKDFLSQPSLGLLVRTYPEPEGGVELLENPPHRVDGPVDLGESPLAFLTSNPGHSLSSEQGSSAETAPEEGEGPDLESSDETDHSSKSTEQVAAFCRSLHEMSPSDSSPSPQDATSPQLATTRQLSDADKLRKVICELLETERTYVKDLNCLMERYLKPLQKETFLTQDELDVLFGNLTEMVEFQVEFLKTLEDGVRLVPDLEKLEKVDQFKKVLFSLGGSFLYYADRFKLYSAFCASHTKVPKVLVKAKTDTAFKAFLDAQNPRQQHSSTLESYLIKPIQRVLKYPLLLRELFALTDAESEEHYHLDVAIKTMNKVASHINEMQKIHEEFGAVFDQLIAEQTGEKKEVADLSMGDLLLHTSVIWLNPPASLGKWKKEPELAAFVFKTAVVLVYKDGSKQKKKLVGSHRLSIYEEWDPFRFRHMIPTEALQVRALPSADAEANAVCEIVHVKSESEGRPERVFHLCCSSPESRKDFLKSVHSILRDKHRRQLLKTESLPSAQQYVPFGGKRLCALKGARPAMSRAVSAPSKSLGRRRRRLARNRFTIDSDAISASSPEKEPQQPAGGGDTDRWVEEQFDLAQYEEQDDIKETDILSDDDEFCESLKGASVDRDLQEQLQAASISQRARGRRTLDSHASRMTQLKKQAALSGINGGLESASEEVIWVRREDFAPSRKLNTEI
B4: CD44 antigen (Mus musculus), P15379 (parent)
chain: B2 partner

One assay covers variants of B1. To be noted: with PARD3, Q8TEW0-2.
PARD3, Q8TEW0-2, sequence (Q8TEW0 other isoform, or with tags, fused parts or gaps): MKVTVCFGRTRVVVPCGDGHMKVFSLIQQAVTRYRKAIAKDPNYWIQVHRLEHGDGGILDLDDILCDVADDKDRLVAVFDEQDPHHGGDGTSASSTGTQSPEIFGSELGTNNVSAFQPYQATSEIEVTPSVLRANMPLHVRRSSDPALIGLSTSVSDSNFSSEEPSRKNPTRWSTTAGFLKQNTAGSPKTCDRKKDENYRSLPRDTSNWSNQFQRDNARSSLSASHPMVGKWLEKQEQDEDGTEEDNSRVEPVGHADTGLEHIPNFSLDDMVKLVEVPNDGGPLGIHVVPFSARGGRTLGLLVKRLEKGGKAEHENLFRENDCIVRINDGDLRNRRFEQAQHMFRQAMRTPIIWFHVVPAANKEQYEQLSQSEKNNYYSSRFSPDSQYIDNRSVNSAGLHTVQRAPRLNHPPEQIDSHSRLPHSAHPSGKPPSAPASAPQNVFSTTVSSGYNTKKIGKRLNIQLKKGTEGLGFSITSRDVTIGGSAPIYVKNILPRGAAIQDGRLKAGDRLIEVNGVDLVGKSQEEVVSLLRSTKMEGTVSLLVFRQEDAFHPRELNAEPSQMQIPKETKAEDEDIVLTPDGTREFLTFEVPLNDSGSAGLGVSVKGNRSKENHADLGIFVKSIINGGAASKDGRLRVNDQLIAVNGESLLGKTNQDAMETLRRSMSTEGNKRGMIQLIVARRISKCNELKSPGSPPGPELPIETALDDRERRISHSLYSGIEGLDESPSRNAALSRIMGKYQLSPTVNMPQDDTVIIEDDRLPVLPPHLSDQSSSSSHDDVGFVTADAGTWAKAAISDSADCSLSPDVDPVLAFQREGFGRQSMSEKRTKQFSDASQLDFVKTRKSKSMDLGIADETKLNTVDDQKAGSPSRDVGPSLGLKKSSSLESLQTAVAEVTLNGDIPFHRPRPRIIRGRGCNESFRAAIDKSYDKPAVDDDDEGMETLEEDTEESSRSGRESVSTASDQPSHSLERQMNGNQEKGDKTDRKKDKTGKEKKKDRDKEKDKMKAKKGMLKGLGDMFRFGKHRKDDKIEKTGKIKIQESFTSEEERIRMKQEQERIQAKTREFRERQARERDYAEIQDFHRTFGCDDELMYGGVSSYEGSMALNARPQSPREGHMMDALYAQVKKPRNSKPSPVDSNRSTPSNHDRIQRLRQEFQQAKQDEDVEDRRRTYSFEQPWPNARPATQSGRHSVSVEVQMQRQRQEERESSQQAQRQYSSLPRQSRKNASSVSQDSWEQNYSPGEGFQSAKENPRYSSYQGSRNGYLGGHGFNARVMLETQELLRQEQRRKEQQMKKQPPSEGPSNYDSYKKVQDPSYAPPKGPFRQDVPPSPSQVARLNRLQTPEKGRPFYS
In the case of K624A, the “effect of a mutation on the interaction” value was “decreasing interaction”.

The next assay covers variants of B1. To be noted: with PARD3, Q8TEW0-2. This is another data set of the same source.
Turning to R632A, the “effect of a mutation on the interaction” value is “decreasing interaction”.

In a further assay the parent is B1. To be noted: with PARD3, Q8TEW0-2. The source holds these as a separate data set.
As to R716A, the “effect of a mutation on the interaction” value is reported as “decreasing interaction”.

The next assay covers variants of B1. To be noted: with pard3_human PARD3, Q8TEW0.
Target sequence in this assay (Q8TEW0 whole entry): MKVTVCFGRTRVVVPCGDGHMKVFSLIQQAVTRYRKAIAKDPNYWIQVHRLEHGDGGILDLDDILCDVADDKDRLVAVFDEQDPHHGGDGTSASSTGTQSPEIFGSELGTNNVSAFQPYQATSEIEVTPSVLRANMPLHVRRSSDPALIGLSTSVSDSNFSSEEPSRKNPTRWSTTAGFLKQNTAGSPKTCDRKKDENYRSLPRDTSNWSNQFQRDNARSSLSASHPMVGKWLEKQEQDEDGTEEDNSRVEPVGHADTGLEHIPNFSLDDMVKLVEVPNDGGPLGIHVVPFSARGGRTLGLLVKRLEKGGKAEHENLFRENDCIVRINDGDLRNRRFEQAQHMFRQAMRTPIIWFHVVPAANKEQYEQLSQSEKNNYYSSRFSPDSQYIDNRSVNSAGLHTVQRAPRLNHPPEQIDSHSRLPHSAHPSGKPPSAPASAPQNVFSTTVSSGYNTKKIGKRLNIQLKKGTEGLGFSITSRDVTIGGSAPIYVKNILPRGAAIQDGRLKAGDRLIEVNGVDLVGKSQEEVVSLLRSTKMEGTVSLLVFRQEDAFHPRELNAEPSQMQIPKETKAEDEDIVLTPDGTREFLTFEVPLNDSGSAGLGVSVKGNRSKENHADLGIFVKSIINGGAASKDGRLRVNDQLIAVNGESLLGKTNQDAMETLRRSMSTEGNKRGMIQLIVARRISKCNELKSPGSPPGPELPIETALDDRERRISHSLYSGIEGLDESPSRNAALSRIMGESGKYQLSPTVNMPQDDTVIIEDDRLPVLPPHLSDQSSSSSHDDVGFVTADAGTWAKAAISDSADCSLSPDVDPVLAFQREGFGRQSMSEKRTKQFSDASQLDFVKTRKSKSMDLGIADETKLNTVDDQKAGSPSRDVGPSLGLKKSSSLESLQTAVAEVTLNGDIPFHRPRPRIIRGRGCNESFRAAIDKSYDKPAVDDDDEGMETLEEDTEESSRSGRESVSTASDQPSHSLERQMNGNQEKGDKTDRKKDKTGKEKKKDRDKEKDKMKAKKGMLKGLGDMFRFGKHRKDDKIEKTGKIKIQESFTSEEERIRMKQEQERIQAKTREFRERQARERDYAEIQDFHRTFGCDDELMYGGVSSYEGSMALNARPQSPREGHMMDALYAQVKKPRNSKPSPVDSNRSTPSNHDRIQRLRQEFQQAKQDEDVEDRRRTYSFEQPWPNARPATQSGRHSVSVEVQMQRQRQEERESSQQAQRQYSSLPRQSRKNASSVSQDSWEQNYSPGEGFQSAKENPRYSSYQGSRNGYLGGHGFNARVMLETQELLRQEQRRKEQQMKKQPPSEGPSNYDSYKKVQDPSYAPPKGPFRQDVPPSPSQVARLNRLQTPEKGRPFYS
In the case of R716A, the “effect of a mutation on the interaction” value was “decreasing interaction”. On the same count and under the same terms, the entry for R693A is “decreasing interaction”.

In another assay the parent is B1. To be noted: with PARD3, Q8TEW0-2. This is another data set of the same source.
As to K627A, the “effect of a mutation on the interaction” value was “decreasing interaction”.

The next assay covers variants of B1. To be noted: with PARD3, Q8TEW0-2. The source holds these as a separate data set.
For the variant R693A, the “effect of a mutation on the interaction” value was “decreasing interaction”.

The variants in the next assay derive from B2. To be noted: with cd44_mouse Cd44, P15379.
As for R716A, the “effect of a mutation on the interaction” value is “decreasing interaction”.

In the next assay the parent is B2. To be noted: with cd44_mouse Cd44, P15379. This is another data set of the same source.
Consider R632A, for which the “effect of a mutation on the interaction” value was “decreasing interaction”.

Variants of B2 are the subject of the next assay. To be noted: with cd44_mouse Cd44, P15379. The source holds these as a separate data set.
Turning to K624A, the “effect of a mutation on the interaction” value is reported as “decreasing interaction”.

Another assay covers variants of B2. To be noted: with cd44_mouse Cd44, P15379. This is another data set of the same source.
Regarding K627A, the “effect of a mutation on the interaction” value is listed as “decreasing interaction”.

The variants in a further assay derive from B2. To be noted: with cd44_mouse Cd44, P15379. The source holds these as a separate data set.
In the case of R693A, the “effect of a mutation on the interaction” value is on record as “decreasing interaction”.

Variants of B3 are the subject of a further assay. To be noted: with pard3_human PARD3, Q8TEW0.
Target sequence in this assay (Q8TEW0 whole entry): as above
On to R645A, for which the “effect of a mutation on the interaction” value is “decreasing interaction”.

Regarding R622A, the “effect of a mutation on the interaction” value was “decreasing interaction”.

Variants of B4 are the subject of a further assay. To be noted: with tiam1_mouse Tiam1, Q60610.
On to P753A, for which the “effect of a mutation on the interaction” value was “decreasing interaction”.

The next assay covers variants of B4. To be noted: with tiam1_mouse Tiam1, Q60610. The source holds these as a separate data set.
On to T762A, for which the “effect of a mutation on the interaction” value is “decreasing interaction”.

Variants of B4 are the subject of a further assay. To be noted: with tiam1_mouse Tiam1, Q60610. The source holds these as a separate data set.
On to E752K, for which the “effect of a mutation on the interaction” value was “disrupting interaction”.

In the next assay the parent is B4. To be noted: with tiam1_mouse Tiam1, Q60610. This is another data set of the same source.
Consider E755K, for which the “effect of a mutation on the interaction” value is recorded as “disrupting interaction”.

Variants of B4 are the subject of the next assay. To be noted: with tiam1_mouse Tiam1, Q60610. This is another data set of the same source.
With C760S, the “effect of a mutation on the interaction” value was “disrupting interaction”.

The variants in another assay derive from B4. To be noted: with tiam1_mouse Tiam1, Q60610. The source holds these as a separate data set.
With S754A, the “effect of a mutation on the interaction” value is recorded as “decreasing interaction”.
